Laboratory results taken from article PMC3273627 (Journal of Molecular Biology, 2011).

Biological target: actin filaments (UniProt P68135 1-377)
Experiment: co-sedimentation

Kd: 3.53 µM
B1: Dys ΔH2-R19 (other)
chain: MLWWEEVEDCYEREDVQKKTFTKWINAQFSKFGKQHIDNLFSDLQDGKRLLDLLEGLTGQKLPKEKGSTRVHALNNVNKALRVLQKNNVDLVNIGSTDIVDGNHKLTLGLIWNIILHWQVKNVMKTIMAGLQQTNSEKILLSWVRQSTRNYPQVNVINFTSSWSDGLALNALIHSHRPDLFDWNSVVSQHSATQRLEHAFNIAKCQLGIEKLLDPEDVATTYPDKKSILMYITSLFQVLPQQVSIEAIQEVEMLPRTSSKVTREEHFQLHHQMHYSQQITVSLAQGYEQTSSSPKPRFKSYAFTQAAYVATSDSTQSPYPSQHLEAPRDKSLDSSLMETEVNLDSYQTALEEVLSWLLSAEDTLRAQGEISNDVEEVKEQFHAHEGFMMDLTSHQGLVGNVLQLGSQLVGKGKLSEDEEAEVQEQMNLLNSRWECLRVASMEKQSKLHKVLMDLQNQKLKELDDWLTKTEERTKKMEEEPFGPDLEDLKCQVQQHKVLQEDLEQEQVRVNSLTHMVVVVDESSGDHATAALEEQLKVLGDRWANICRWTEDRWIVLQDILLKWQHFTEEQCLFSTWLSEKEDAMKNIQTSGFKDQNEMMSSLHKISTLKIDLEKKKPTMEKLSSLNQDLLSALKNKSVTQKMEIWMENFAQRWDNLTQKLEKSSAQISQPDRAPGLSTTGASASQTVTLVTQSVVTKETVISKLEMPSSLLLEVPALADFNRAWTELTDWLSLLDRVIKSQRVMVGDLEDINEMIIKQKATLQDLEQRRPQLEELITAAQNLKNKTSNQEARTIITDRIERIQIQWDEVQEQLQNRRQQLNEMLKDSTQWLEAKEEAEQVIGQVRGKLDSWKEGPHTVDAIQKKITETKQLAKDLRQRQISVDVANDLALKLLRDYSADDTRKVHMITENINTSWGNIHKRVSEQEAALEETHRLLQQFPLDLEKFLSWITEAETTANVLQDASRKEKLLEDSRGVRELMKPWQDLQGEIETHTDIYHNLDENGQKILRSLEGSDEAPLLQRRLDNMNFKWSELQKKSLNIRSHLEASSDQWKRLHLSLQELLVWLQLKDDELSRQAPIGGDFPAVQKQNDIHRAFKRELKTKEPVIMSTLETVRIFLTEQPLEGLEKLYQEPRELPPEERAQNVTRLLRKQAEEVNAEWDKLNLRSADWQRKIDEALERLQELQEAADELDLKLRQAEVIKGSWQPVGDLLIDSLQDHLEKVKALRGEIAPLKENVNRVNDLAHQLTTLGIQLSPYNLSTLEDLNTRWRLLQVAVEDRVRQLHEAHRDFGPASQHFLSTSVQGPWERAISPNKVPYYINHETQTTCWDHPKMTELYQSLADLNNVRFSAYRTAMKLRRLQKALCLDLLSLSAACDALDQHNLKQNDQPMDILQIINCLTTIYDRLEQEHNNLVNVPLCVDMCLNWLLNVYDTGRTGRIRVLSFKTGIISLCKAHLEDKYRYLFKQVASSTGFCDQRRLGLLLHDSIQIPRQLGEVASFGGSNIEPSVRSCFQFANNKPEIEAALFLDWMRLEPQSMVWLPVLHRVAAAETAKHQAKCNICKECPIIGFRYRSLKHFNYDICQSCFFSGRVAKGHKMHYPMVEYCTPTTSGEDVRDFAKVLKNKFRTKRYFAKHPRMGYLPVQTVLEGDNMETPVTLINFWPVDSAPASSPQLSHDDTHSRIEHYASRLAEMENSNGSYLNDSISPNESIDDEHLLIQHYCQSLNQDSPLSQPRSPAQILISLESEERGELERILADLEEENRNLQAEYDRLKQQHEHKGLSPLPSPPEMMPTSPQSPRDAELIAEAKLLRQHKGRLEARMQILEDHNKQLESQLHRLRQLLEQPQAEAKVNGTTVSSPSTSLQRSDSSQPMLLRVVGSQTSESMGEEDLLSPPQDTSTGLEEVMEQLNNSFPSSRGRNAPGKPMREDTM
